T1: human IL-2 receptor (IL-2Rα/IL-2Rβ/γc) (human, UniProt P01589 22-272; P14784 27-551; P31785 23-369)
T1 sequence 1: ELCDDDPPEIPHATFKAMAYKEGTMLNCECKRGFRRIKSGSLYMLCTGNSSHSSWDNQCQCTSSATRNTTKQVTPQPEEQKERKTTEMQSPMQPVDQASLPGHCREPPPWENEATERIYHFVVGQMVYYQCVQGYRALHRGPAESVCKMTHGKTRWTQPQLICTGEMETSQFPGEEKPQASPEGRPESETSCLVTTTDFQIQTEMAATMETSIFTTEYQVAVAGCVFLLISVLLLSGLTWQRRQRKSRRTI
T1 sequence 2: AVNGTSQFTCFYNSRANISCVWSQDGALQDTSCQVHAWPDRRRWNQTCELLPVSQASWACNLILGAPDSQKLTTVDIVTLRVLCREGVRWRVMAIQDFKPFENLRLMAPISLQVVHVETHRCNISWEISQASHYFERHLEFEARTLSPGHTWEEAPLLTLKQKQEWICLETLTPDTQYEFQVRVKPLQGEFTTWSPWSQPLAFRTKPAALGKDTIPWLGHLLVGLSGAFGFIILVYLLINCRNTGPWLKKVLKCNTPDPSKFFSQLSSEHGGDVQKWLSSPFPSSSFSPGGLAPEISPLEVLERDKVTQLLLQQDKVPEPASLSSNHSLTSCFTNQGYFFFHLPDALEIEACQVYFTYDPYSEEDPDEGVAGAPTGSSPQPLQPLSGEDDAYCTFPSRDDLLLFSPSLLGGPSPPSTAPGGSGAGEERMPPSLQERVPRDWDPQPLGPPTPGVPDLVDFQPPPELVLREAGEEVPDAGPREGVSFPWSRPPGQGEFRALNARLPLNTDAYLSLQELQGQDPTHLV
T1 sequence 3: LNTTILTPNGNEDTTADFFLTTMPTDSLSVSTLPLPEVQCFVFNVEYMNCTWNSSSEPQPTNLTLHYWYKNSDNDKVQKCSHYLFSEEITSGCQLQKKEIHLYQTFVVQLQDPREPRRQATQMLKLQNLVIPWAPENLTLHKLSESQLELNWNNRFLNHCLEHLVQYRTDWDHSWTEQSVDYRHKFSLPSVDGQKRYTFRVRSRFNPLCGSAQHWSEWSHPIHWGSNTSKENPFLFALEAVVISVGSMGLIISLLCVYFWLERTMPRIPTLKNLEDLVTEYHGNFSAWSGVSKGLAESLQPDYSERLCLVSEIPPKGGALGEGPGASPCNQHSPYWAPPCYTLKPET


Target: T1, human IL-2 receptor (IL-2Rα/IL-2Rβ/γc)
Assay: cell-based or functional assay

Fold Max signal (% pSTAT5+) Treg/NK	Max signal (% pSTAT5+), NK	Max signal (% pSTAT5+), Treg	EC50 (nM) pSTAT5, NK, human PBMCs	EC50 (nM) pSTAT5, Treg, human PBMCs	fold EC50 NK/Treg	Binder
4 fold	6 % pSTAT5+	25 % pSTAT5+	–	–	–	DC00046 (other) chain 1: QVQLVESGGGLVQPGGSLRLSCATSGFTFRNNFMSWVRQAPGKGLEWVSTISYGGESTTYAESVKGRFTISRDNAKNTLYLQMNNLKPEDTAVYYCAKATSYDSIRSGSRGQGTQVTVSSGGGGSGGGGSGGGGSQVQLVESGGGLVQPGGSLRLSCATSGFTFRNNFMSWVRQAPGKGLEWVSTISYGGESTTYAESVKGRFTISRDNAKNTLYLQMNNLKPEDTAVYYCAKATSYDSIRSGSRGQGTQVTVSSDKTHTCPPCPAPEAAGGPSVFLFPPKPKDTLMISRTPEVTCVVVDVSHEDPEVKFNWYVDGVEVHNAKTKPREEQYNSTYRVVSVLTVLHQDWLNGKEYKCKVSNKALGAPIEKTISKAKGQPREPQVYTLPPSRDELTKNQVSLTCLVKGFYPSDIAVEWESNGQPENNYKTTPPVLDSDGSFLLYSKLTVDKSRWQQGNVFSCSVMHEALHNHYTQKSLSLSPGK chain 2: EVQLVESGGGLVQTGGSLRLSCAASGGTFSRDAMAWFRQVPGKEREFVALISWSGATTNYADSVKGRFAISRDNGKNTVYLQMNRLKPADTAIYYCAADRRPMGSRSYFEPTEYDDWGQGTQVTVSSGGGGSGGGGSGGGGSQVQLVESGGGLVQPGGSLRLSCATSGFTFRNNFMSWVRQAPGKGLEWVSTISYGGESTTYAESVKGRFTISRDNAKNTLYLQMNNLKPEDTAVYYCAKATSYDSIRSGSRGQGTQVTVSSGGGGSGGGGSGGGGSQVQLVESGGGLVQAGGSLTLSCAAPGRTFGTDVVGWFRQAPGKEREFVASISRSGDGIYYDDSVKGRFTISRNNAWNTVNLQMNSLKVEDTAVYYCAAGDGWSTYDYWGQGTQVTVSSGGGGSGGGGSGGGGSDKTHTCPPCPAPEAAGGPSVFLFPPKPKDTLMISRTPEVTCVVVDVSHEDPEVKFNWYVDGVEVHNAKTKPREEQYNSTYRVVSVLTVLHQDWLNGKEYKCKVSNKALGAPIEKTISKAKGQPREPQVYTLPPSRDELTKNQVSLTCLVKGFYPSDIAVEWESNGQPENNYKTTPPVLDSDGSFFLYSRLTVDKSRWQQGNVFSCSVMHEALHNHYTQKSLSLSPGK
16 fold	3 % pSTAT5+	54 % pSTAT5+	0.0425 nM	0.529 pM	80 fold	DC00043 (other) chain 1: QVQLVESGGGLVQPGGSLRLSCATSGFTFRNNFMSWVRQAPGKGLEWVSTISYGGESTTYAESVKGRFTISRDNAKNTLYLQMNNLKPEDTAVYYCAKATSYDSIRSGSRGQGTQVTVSSDKTHTCPPCPAPEAAGGPSVFLFPPKPKDTLMISRTPEVTCVVVDVSHEDPEVKFNWYVDGVEVHNAKTKPREEQYNSTYRVVSVLTVLHQDWLNGKEYKCKVSNKALGAPIEKTISKAKGQPREPQVYTLPPSRDELTKNQVSLTCLVKGFYPSDIAVEWESNGQPENNYKTTPPVLDSDGSFLLYSKLTVDKSRWQQGNVFSCSVMHEALHNHYTQKSLSLSPGK chain 2: QVQLVESGGGLVQPGGSLRLSCATSGFTFRNNFMSWVRQAPGKGLEWVSTISYGGESTTYAESVKGRFTISRDNAKNTLYLQMNNLKPEDTAVYYCAKATSYDSIRSGSRGQGTQVTVSSGGGGSGGGGSGGGGSEVQLVESGGGLVQTGGSLRLSCAASGGTFSRDAMAWFRQVPGKEREFVALISWSGATTNYADSVKGRFAISRDNGKNTVYLQMNRLKPADTAIYYCAADRRPMGSRSYFEPTEYDDWGQGTQVTVSSGGGGSGGGGSGGGGSQVQLVESGGGLVQAGGSLTLSCAAPGRTFGTDVVGWFRQAPGKEREFVASISRSGDGIYYDDSVKGRFTISRNNAWNTVNLQMNSLKVEDTAVYYCAAGDGWSTYDYWGQGTQVTVSSGGGGSGGGGSGGGGSDKTHTCPPCPAPEAAGGPSVFLFPPKPKDTLMISRTPEVTCVVVDVSHEDPEVKFNWYVDGVEVHNAKTKPREEQYNSTYRVVSVLTVLHQDWLNGKEYKCKVSNKALGAPIEKTISKAKGQPREPQVYTLPPSRDELTKNQVSLTCLVKGFYPSDIAVEWESNGQPENNYKTTPPVLDSDGSFFLYSRLTVDKSRWQQGNVFSCSVMHEALHNHYTQKSLSLSPGK
5 fold	20 % pSTAT5+	96 % pSTAT5+	0.442 nM	< 0.1 pM	> 4420 fold	DC00044 (other) chain 1: QVQLVESGGGLVQPGGSLRLSCATSGFTFRNNFMSWVRQAPGKGLEWVSTISYGGESTTYAESVKGRFTISRDNAKNTLYLQMNNLKPEDTAVYYCAKATSYDSIRSGSRGQGTQVTVSSDKTHTCPPCPAPEAAGGPSVFLFPPKPKDTLMISRTPEVTCVVVDVSHEDPEVKFNWYVDGVEVHNAKTKPREEQYNSTYRVVSVLTVLHQDWLNGKEYKCKVSNKALGAPIEKTISKAKGQPREPQVYTLPPSRDELTKNQVSLTCLVKGFYPSDIAVEWESNGQPENNYKTTPPVLDSDGSFLLYSKLTVDKSRWQQGNVFSCSVMHEALHNHYTQKSLSLSPGK chain 2: QVQLVESGGGLVQAGGSLTLSCAAPGRTFGTDVVGWFRQAPGKEREFVASISRSGDGIYYDDSVKGRFTISRNNAWNTVNLQMNSLKVEDTAVYYCAAGDGWSTYDYWGQGTQVTVSSGGGGSGGGGSGGGGSEVQLVESGGGLVQTGGSLRLSCAASGGTFSRDAMAWFRQVPGKEREFVALISWSGATTNYADSVKGRFAISRDNGKNTVYLQMNRLKPADTAIYYCAADRRPMGSRSYFEPTEYDDWGQGTQVTVSSGGGGSGGGGSGGGGSQVQLVESGGGLVQPGGSLRLSCATSGFTFRNNFMSWVRQAPGKGLEWVSTISYGGESTTYAESVKGRFTISRDNAKNTLYLQMNNLKPEDTAVYYCAKATSYDSIRSGSRGQGTQVTVSSDKTHTCPPCPAPEAAGGPSVFLFPPKPKDTLMISRTPEVTCVVVDVSHEDPEVKFNWYVDGVEVHNAKTKPREEQYNSTYRVVSVLTVLHQDWLNGKEYKCKVSNKALGAPIEKTISKAKGQPREPQVYTLPPSRDELTKNQVSLTCLVKGFYPSDIAVEWESNGQPENNYKTTPPVLDSDGSFFLYSRLTVDKSRWQQGNVFSCSVMHEALHNHYTQKSLSLSPGK
12 fold	7 % pSTAT5+	88 % pSTAT5+	0.0573 nM	0.151 pM	379 fold	DC00045 (other) chain 1: QVQLVESGGGLVQPGGSLRLSCATSGFTFRNNFMSWVRQAPGKGLEWVSTISYGGESTTYAESVKGRFTISRDNAKNTLYLQMNNLKPEDTAVYYCAKATSYDSIRSGSRGQGTQVTVSSDKTHTCPPCPAPEAAGGPSVFLFPPKPKDTLMISRTPEVTCVVVDVSHEDPEVKFNWYVDGVEVHNAKTKPREEQYNSTYRVVSVLTVLHQDWLNGKEYKCKVSNKALGAPIEKTISKAKGQPREPQVYTLPPSRDELTKNQVSLTCLVKGFYPSDIAVEWESNGQPENNYKTTPPVLDSDGSFLLYSKLTVDKSRWQQGNVFSCSVMHEALHNHYTQKSLSLSPGK chain 2: QVQLVESGGGLVQAGGSLTLSCAAPGRTFGTDVVGWFRQAPGKEREFVASISRSGDGIYYDDSVKGRFTISRNNAWNTVNLQMNSLKVEDTAVYYCAAGDGWSTYDYWGQGTQVTVSSGGGGSGGGGSGGGGSQVQLVESGGGLVQPGGSLRLSCATSGFTFRNNFMSWVRQAPGKGLEWVSTISYGGESTTYAESVKGRFTISRDNAKNTLYLQMNNLKPEDTAVYYCAKATSYDSIRSGSRGQGTQVTVSSGGGGSGGGGSGGGGSEVQLVESGGGLVQTGGSLRLSCAASGGTFSRDAMAWFRQVPGKEREFVALISWSGATTNYADSVKGRFAISRDNGKNTVYLQMNRLKPADTAIYYCAADRRPMGSRSYFEPTEYDDWGQGTQVTVSSGGGGSGGGGSGGGGSDKTHTCPPCPAPEAAGGPSVFLFPPKPKDTLMISRTPEVTCVVVDVSHEDPEVKFNWYVDGVEVHNAKTKPREEQYNSTYRVVSVLTVLHQDWLNGKEYKCKVSNKALGAPIEKTISKAKGQPREPQVYTLPPSRDELTKNQVSLTCLVKGFYPSDIAVEWESNGQPENNYKTTPPVLDSDGSFFLYSRLTVDKSRWQQGNVFSCSVMHEALHNHYTQKSLSLSPGK

Source: patent US20240409645A1 (DUALYX, published 2024)
